Target: ErbB1-mCitrine (UniProt P00533)
Test: FRET or BRET; confocal time-domain FLIM-FRET in live COS-7 cells at 37°C; donor ErbB1-mCitrine, acceptor an mCherry-labeled PTP1B chimera; cells starved overnight, recorded 2 min before and 14 min after EGF (100 ng/mL)

Substance | average donor fluorescence lifetime (donor-only control 3.02 ns) [ns]
mCherry-PTP1B^D/A-ER (enzyme) | 2.89
mCherry-PTP1B^D/A-OMM (enzyme) | 2.96

From publication PMC4592070
